Changes are numbered by the printed parent chain. In names and notes the source's numbering stands.

Data set [1] deals with the molecule itself. The data set can be described thus: dimerisation, gel mobility shift on DR12 probe (not shown).
Data set [2] deals with the molecule itself. Put plainly: homodimerisation, gel mobility shift on 4DR12 probe; bands assigned with Superdex 200 fractions. The text has this:
Arrows show time of addition of methyl epoxyfarnesoate or EtOH carrier.
Nuclear extracts were isolated from Sf9 cells as previously described Jones et al. (2001) Insect Biochem. Mol. Biol. 32, 33-49; Jones et al (1998) Biochem. J. 335, 79-84; 79-84; Jones et al. (2000) Biochem. J. 346, 233-240. For the DR12 probe, the double stranded DR12 oligonucleotide (sequence as shown above) was 5′ end-labelled with ³²P by T4 polynucleotide kinase (New England Biolabs Inc.), and then purified from a 20% native polyacrylamide gel. The same double stranded DR12 oligonucleotide was used in 100-fold excess as a self competitor. For the 4DR12Core probe, the 4DR12Core sequence was liberated from the vector as a 148-bp ClaI/HindIII fragment, and was 5′ end-labelled with ³²P and purified. The same, unlabelled fragment was used at 100-fold excess as a self competitor. As a negative control for specificity in gel shifts, the 36 bp BglII/KpnI polylinker region fragment of the pGL3 vector was liberated and recovered from low melting point agarose gels and used as a 100 nonself competitor (sequence: […], SEQ ID NO: 17). […]

Data set [3] deals with T1, USP (ultraspiracle) wild-type (Drosophila melanogaster, UniProt P20153 SEQ:1-508).
T1 sequence: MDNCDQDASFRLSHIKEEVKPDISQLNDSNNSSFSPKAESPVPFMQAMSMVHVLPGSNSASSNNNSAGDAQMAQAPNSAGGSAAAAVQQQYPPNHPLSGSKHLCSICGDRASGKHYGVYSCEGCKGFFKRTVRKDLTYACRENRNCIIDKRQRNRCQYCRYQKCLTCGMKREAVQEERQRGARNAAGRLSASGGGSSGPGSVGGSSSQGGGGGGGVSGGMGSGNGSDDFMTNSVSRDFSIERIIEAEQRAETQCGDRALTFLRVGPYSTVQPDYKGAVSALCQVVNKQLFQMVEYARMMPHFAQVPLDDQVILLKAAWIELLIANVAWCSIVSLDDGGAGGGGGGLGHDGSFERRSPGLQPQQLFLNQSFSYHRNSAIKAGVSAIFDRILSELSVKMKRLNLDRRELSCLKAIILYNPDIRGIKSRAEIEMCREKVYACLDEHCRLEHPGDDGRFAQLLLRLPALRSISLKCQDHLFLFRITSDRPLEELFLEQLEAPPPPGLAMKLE
The data set can be described thus: competition; 100x nonself competitor, specificity control. Conditions: tags: His-tag, pET32EK (Novagen); chain copies: monomer and homodimer (stated). How it is done:
(§1) Control competitions with self and nonself unlabelled excess probes confirmed the specificity of binding. […] (B) The homodimer-enriched fraction of each receptor preparation was then analyzed for binding to […] methyl epoxyfarnesoate, using an intrinsic fluorescence assay method that tracks ligand binding (by suppression in receptor fluorescence) Jones et al., (2000) Insect Biochem. Mol. Biol. 30, 671-679; Jones et al. (2001), Insect Biochem. Mol. Biol. 32, 33-49. […] Arrows show time of addition of methyl epoxyfarnesoate or EtOH carrier.
(§2) Nuclear extracts were isolated from Sf9 cells as previously described Jones et al. (2001) Insect Biochem. Mol. Biol. 32, 33-49; Jones et al (1998) Biochem. J. 335, 79-84; 79-84; Jones et al. (2000) Biochem. J. 346, 233-240. For the DR12 probe, the double stranded DR12 oligonucleotide (sequence as shown above) was 5′ end-labelled with ³²P by T4 polynucleotide kinase (New England Biolabs Inc.), and then purified from a 20% native polyacrylamide gel. The same double stranded DR12 oligonucleotide was used in 100-fold excess as a self competitor. For the 4DR12Core probe, the 4DR12Core sequence was liberated from the vector as a 148-bp ClaI/HindIII fragment, and was 5′ end-labelled with ³²P and purified. The same, unlabelled fragment was used at 100-fold excess as a self competitor. […]

The target of data set [4] is T2, USP C472A/H475L (Drosophila melanogaster, UniProt P20153 SEQ:1-508, C472A/H475L).
T2 sequence: T1 sequence with C472A, H475L
The description is as above. Conditions: tags: His-tag, pET32EK (Novagen); chain copies: monomer and homodimer (stated). How it is done:
as §1, §2

B1: His-tagged wild-type Drosophila melanogaster USP (bacterially overexpressed) (receptor)
chain: T1 sequence
notes: Full-length dUSP cloned into pET32EK, purified on nickel resin and Superdex 200; also called wild-type dUSP; His-dUSP fusion protein; not shown: His tag / fusion part from the vector pET32EK
Turning to B1, the binding result in data set [1] is given as “binds”.

B2: P498W/P499W mutant USP (receptor, not shown: small tags and cut ends)
chain: T1 sequence with P498W, P499W
notes: Two prolines at the end of alpha-helix 12 replaced by tryptophan
As to B2, the binding result in data set [1] was “binds”.

B3: His-tagged mutant dUSP Cys472Ala/His475Leu (bacterially overexpressed) (receptor)
chain: T1 sequence with C472A, H475L
notes: also called C472A/H475L; double mutant dUSP; not shown: His tag / fusion part from the vector pET32EK
Turning to B3, in data set [2], the binding result was “binds”.

B4: pGL3 polylinker (nonself) (dsDNA)
DNA 1: GGTACCGAGCTCTTACGCGTGCTAGCCCGGGCTCGA
DNA 2: TCGAGCCCGGGCTAGCACGCGTAAGAGCTCGGTACC
For the molecule B4, the binding result in data set [3] and in data set [4] was “no binding” each time.

The values are drawn from patent US20050054569A1, “Mutants and assay system to identify USP/RXR ligands” (published 2005).
